Measurements from patent US20170189524A1 (IMMUNOQURE, published 2017).
Values belong to the binder of their own block, whether it stands above or below them.

B2: recombinant human IL-20 (ligand, UniProt Q9NYY1 25-176, looked up)
chain: LKTLNLGSCVIATNLQEIRNGFSEIRGSVQAKDGNIDIRILRRTESLQDTKPANRCCLLRHLLRLYLDRVFKNYQTPDHYTLRKISSLANSFLTIKKDLRLCHAHMTCHCGEEAMKKYSQILSHFEKLEPQAAVVKALGELDILLQWMEETE
notes: also called rhIL-20; hIL-20
B8: recombinant mouse IL-20 (ligand, UniProt Q9JKV9 25-176, looked up)
chain: LKTLHLGSCVITANLQAIQKEFSEIRDSVQAEDTNIDIRILRTTESLKDIKSLDRCCFLRHLVRFYLDRVFKVYQTPDHHTLRKISSLANSFLIIKKDLSVCHSHMACHCGEEAMEKYNQILSHFIELELQAAVVKALGELGILLRWMEEML
notes: also called rmIL-20; murine IL-20

Experiments:
[1] = biological target: T1, g2 IL-20 (fusion protein of human IL-20 fused C-terminally to Gaussia luciferase) (human, UniProt Q9NYY1 25-176); assay: GLuc-sandwich ELISA, fusion protein captured by anti-GLuc antibody, serial dilution of MAB
T1 construct: order of the parts inferred from 'fused; C-terminally (g2 IL-20) to Gaussia luciferase'; the wording is ambiguous; also called GLuc-IL-20; not shown: Gaussia luciferase
T1 sequence (looked up): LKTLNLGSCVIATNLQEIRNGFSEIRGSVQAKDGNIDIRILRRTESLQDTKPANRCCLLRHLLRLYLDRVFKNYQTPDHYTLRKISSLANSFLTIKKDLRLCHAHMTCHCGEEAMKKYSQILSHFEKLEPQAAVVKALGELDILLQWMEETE

[2] = biological target: T2, g1 IL-20 (fusion protein of human IL-20 with Gaussia luciferase at the IL-20 N-terminus) (human, UniProt Q9NYY1 25-176); assay: as above
T2 construct: also called IL-20-Gaussia luciferase fusion protein; GLuc-IL-20; not shown: Gaussia luciferase (pGaussia1 vector)
T2 sequence (looked up): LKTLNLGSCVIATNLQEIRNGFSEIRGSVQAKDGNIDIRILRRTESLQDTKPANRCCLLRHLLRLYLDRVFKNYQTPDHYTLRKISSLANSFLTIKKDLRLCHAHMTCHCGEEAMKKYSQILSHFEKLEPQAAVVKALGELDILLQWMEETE

[3] = biological target: T3, Type I IL-20 receptor (IL-20RA/IL-20RB) on transfected HEK 293T MSR cells (human, UniProt Q9UHF4 30-553; Q6UXL0 30-311); assay: LCBA, competition with g1 IL-20 on cells expressing Type I IL-20 receptor
T3 construct: whole, on cells; also called IL-20 receptor Type I; IL20RA-Myc-DDK and IL20RB-Myc-DDK; not shown: Myc-DDK tag
T3 sequence (looked up) 1: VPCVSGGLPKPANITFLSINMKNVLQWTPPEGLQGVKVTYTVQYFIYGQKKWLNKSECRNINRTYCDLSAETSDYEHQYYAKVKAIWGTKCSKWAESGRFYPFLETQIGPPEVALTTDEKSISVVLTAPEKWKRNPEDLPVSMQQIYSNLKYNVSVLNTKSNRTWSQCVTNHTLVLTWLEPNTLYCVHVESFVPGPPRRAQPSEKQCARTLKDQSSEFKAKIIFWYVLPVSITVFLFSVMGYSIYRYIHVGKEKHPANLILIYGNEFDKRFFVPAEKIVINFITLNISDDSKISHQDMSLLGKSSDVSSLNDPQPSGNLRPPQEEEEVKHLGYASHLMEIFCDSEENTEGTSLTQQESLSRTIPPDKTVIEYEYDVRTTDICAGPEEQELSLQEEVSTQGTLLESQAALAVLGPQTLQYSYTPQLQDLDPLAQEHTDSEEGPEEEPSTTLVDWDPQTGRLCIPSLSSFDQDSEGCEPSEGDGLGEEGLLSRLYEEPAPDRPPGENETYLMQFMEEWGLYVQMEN
T3 sequence (looked up) 2: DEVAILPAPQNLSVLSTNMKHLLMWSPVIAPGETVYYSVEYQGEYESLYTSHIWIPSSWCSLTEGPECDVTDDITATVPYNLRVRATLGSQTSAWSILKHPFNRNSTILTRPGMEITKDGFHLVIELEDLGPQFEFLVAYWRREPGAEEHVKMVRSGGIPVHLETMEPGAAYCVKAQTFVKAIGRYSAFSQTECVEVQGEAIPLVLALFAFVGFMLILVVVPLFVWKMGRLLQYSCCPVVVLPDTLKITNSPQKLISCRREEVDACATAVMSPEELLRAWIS

recombinant mouse IL-20 [4] = biological target: B8; assay: competition GLuc-sandwich ELISA: soluble mouse IL-20 titrated against antibody 1 µg/ml on captured g2 IL-20
[5] = biological target: T2, g1 IL-20 (fusion protein of human IL-20 …); assay: GLuc-sandwich ELISA
[6] = biological target: T4, corresponding 18mer peptide derived from mouse IL-20 (differs from the human IL-20 101-118-peptide at Y104H … (mouse)); assay: 18mer peptide microarray of murine IL-20
T4 construct: also called corresponding peptide derived from mouse IL-20
T4 peptide: PDHHTLRKISSLANSFLI

[7] = biological target: T5, peptide 19 of human IL-20, NYQTPDHYTLRKISSLAN (human); assay: 18mer peptide microarray of human IL-20
T5 construct: spotted on a glass microarray through a hydrophilic linker
T5 peptide: NYQTPDHYTLRKISSLAN

[8] = biological target: T2, g1 IL-20 (fusion protein of human IL-20 …); assay: chemiluminescent cell-binding assay (FIG. 8D): inhibition of g1 IL-20 binding to HEK 293T MSR cells expressing IL-20 receptor; receptor type for this value not stated
[9] = biological target: T6, peptide 20 of human IL-20, 101-PDHYTLRKISSLANSFLT-118 (human); assay: 18mer peptide microarray of human IL-20, Cy5 anti-human IgG detection
T6 construct: spotted on a glass microarray through a hydrophilic linker; also called human IL-20 101-118-peptide
T6 peptide: PDHYTLRKISSLANSFLT

recombinant human IL-20 = biological target: B2; assay: cell-based or functional assay
recombinant mouse IL-20 [10] = biological target: B8; assay: cell-based or functional assay
[11] = biological target: T7, g1 IFNW (fusion protein of human IFNW with Gaussia luciferase) (human, UniProt P05000 22-195); assay: LCBA cross-competition, g1 IFNW preincubated with soluble antibody (FIG. 18)
T7 construct: also called IFNW-Gaussia luciferase; human IFNW-Gaussia luciferase fusion protein; not shown: Gaussia luciferase
T7 sequence (P05000 22-195): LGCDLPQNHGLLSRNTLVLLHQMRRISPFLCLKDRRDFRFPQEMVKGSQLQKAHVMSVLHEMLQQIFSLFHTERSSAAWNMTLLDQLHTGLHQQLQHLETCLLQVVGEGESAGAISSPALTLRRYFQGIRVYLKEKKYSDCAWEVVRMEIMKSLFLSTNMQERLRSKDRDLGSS

[12] = biological target: T3, Type I IL-20 receptor (IL-20RA/IL-20RB) …; assay: LCBA, competition with g1 IL-20 (FIG. 7E)

B1: antibody 2A11 (antibody, IgG1, V domains shown)
VH: QVHLVQSGAEVKKPGSSVKVSCKASGGTFNNFPMSWVRQAPGRGLEWMAGIIPVFGSANYAQQFHGRVTISADISTSTVSMELNDLKSEDTGVYYCAISGDEDNWIMNFWGQGTLVTVSS
VL: QSLLTQPPSVSGAPGQRVTISCTGSSSNIGAGYDVHWYQQVPGTAPKLLIYGNRNRPSGVPDRFSGSKSGTSASLAITGLQAEDEADYYCQSYDSSLSGHAVFGGGTKVTVLR
notes: IgG1, lambda; also called MAb 2A11
EC50 [1]: 0.0065 µg/mL
EC50 [2]: 0.0098 µg/mL

Binder: B2
binding result [3]: binds

B4: antibody 7D1 (antibody, human IgG1, lambda, V domains shown)
VH: EVQLVASGGDFIQPGRSLRLSCAASGFKFDDYAMFWVRQVPGRGLEWVSGISWSSDKMAYVDSVKGRFTISRDNAKNTLYLQMNNLRPDDTAFYYCAKGGFSSVWNYFDFWGQGTLVTVSS
VL: QSVLTQPPSASGTPGQTVIISCSGTTSNIGSNTVSWYRQLPGAAPKLLIFTYNQRPSGVPDRFSGSKSGTSASLAISGLQSDDEADYYCAVWDDALGGWVFGGGTKLTVLG
notes: IgG1, lambda; also called MAb 7D1
EC50 [5]: > 5 µg/mL
EC50 [1]: 0.0271 µg/mL
EC50 [2]: 5.87 µg/mL

B6: antibody 26B9 (soluble) (antibody, human IgG1, kappa, V domains shown)
VH: QILLQESGPGLVKPTETLSLTCSVSGDSISDSSHYWAWIRQPPGKGPEWIGSVYFSSMTHYNPSLKSRVSISVDKPKNQFSLKVTSVTVADTATYYCARQALARVGAMNWFDPWGQGSLVTVSS
VL: DIIMTQSPDSLPVSLGEGVTINCKSSQSVFFTSSNKSCLAWYQQKPGKSPKLLIYWASTRQSGVPDRFRGSGSGTDFSLTITSLQAEDVAVYFCQQCQTSPPTFGGGTRLEIKR
notes: IgG1, kappa; also called soluble 26B9
binding result [11]: binds

B7: antibody 31B4 (antibody, human IgG1, kappa, V domains shown)
VH: QIQLQESGPGLVRPTETLSLTCSVSGDSISQSSHYWAWIRQPPGKGPEWIGSVYFSSMTHYNPSLTSRVSISIDKAMNKFSLKVTSVTVADTATYYCARQALARVGAMNWFDPWGQGSLVTVSS
VL: DIIMTQSPESLPVSLGEGVTINCKSSQSVFFTSSNRSCLAWYQQKPGQSPKLLIYWASTRQSGVPDRFTGSGSGTDFSLTIAGLQVEDVAVYFCQQCHASPPTFGGGTRLELRR
notes: IgG1, kappa; clonally related to 26B9
binding result [11]: binds

Binder: B8
binding result [12]: binds

Second part, led by results:

EC50 [1]: 0.347 µg/mL
EC50 [2]: 0.128 µg/mL
B3: antibody 6E11 (antibody, IgG1, V domains shown)
VH: QVQLVQSGAEVKKPGSSVKVSCKASGGTFRNYAINWVRQAPRQGLEWMGSLVPMFTSPTYAQKFRGRVTISADESTATSSMELTSLTSEDTAVYFCSADGYKGGLFYGMNVWGQGTTVTVSS
VL: DIVLTQSPESLAVSLGERATINCKSSQSVLYSSNSKNYLAWFQQKPGQPPKLLIYWASTRESGVPDRFSGSGSGTDFTLTITSLQAEDVAVYYCHQYHTLPRTFGHGTKVEIKR
notes: IgG1; also called MAb 6E11
binding result (recombinant mouse IL-20 [4]): no binding (tested: 10 µg/ml to 4.6 ng/ml)

binding result [6]: no binding
binding result [7]: no binding
IC50 [8]: 0.00403 µg/mL
binding result [9]: binds
EC50 [1]: 0.021 µg/mL
EC50 [2]: 0.0186 µg/mL
IC 50 in the KZ136-NLuc reporter assay (recombinant human IL-20): 0.33 µg/mL
IC 50 in the pSTAT3 Western blot assay (25 ng/ml rmIL-20, Type I IL-20 receptor) (recombinant mouse IL-20 [10]): 1870 ng/ml
B5: antibody 20A10 (antibody, human IgG4, kappa, V domains shown)
VH: QVQLVQSGAEVKKPGSSVKVSCKTSGGTFSTSTLSWVRQAPGQGLEWLGGMIPILSRTTYAQKFQGRLTITADEPTSTSYMELSSLKSEDTAVYYCATEGEVSAAHNYYYGMDVWGQGTTVTVSS
VL: DIVLTQSPLYLPVTPGEPASISCRSSQSLLHGNGHNYLDWYLQKPGQSPQLLIYLGSNRASGVPDRFSGSGSGTDFTLKISRVEAEDVGVYYCMQTLHTVFTFGPGTRVDIKR
notes: Recombinant human-derived antibody; also called MAb 20A10; 20A0
